Values joined by “and” are separate entries in the source; they are usually repeats but may differ in a detail not shown here. Identical values can stand only once.
What was measured:
non-reducing PAGE = target: the molecule itself; test: non-reducing PAGE
[1] = target: the molecule itself; test: PAGE under denaturing, non-reducing conditions

| Protein | stoichiometry N (non-reducing PAGE) | stoichiometry N [1] | binding result (non-reducing PAGE) |
| --- | --- | --- | --- |
| Granulin-3 (GRN-3) (natural protein, UniProt P28799 206-261, looked up) VMCPDARSRCPDGSTCCELPSGKWGCCPMPNATCCSDHLHCCPQDTVCDLIQSKCL | 2 and 3 | ≤ 4 |  |
| Granulin-5 (GRN-5) (natural protein, UniProt P28799 364-417, looked up) VPCDNVSSCPSSDTCCQLTSGEWGCCPIPEAVCCSDHQHCCPQGYTCVAEGQCQ |  |  | binds |
